Measured values published in article PMC8709873.

Molecular target: myc-tagged LRRTM2 (UniProt O43300)
Assay: immunostaining of cells or tissue; concentrated conditioned media with Fc proteins (~1 μg/ml) added to CHO cells expressing myc-LRRTM + GFP, on ice 30 min, washed, fixed; Fc detected with Cy3 anti-human IgG, ratio Fc MGV/LRRTM MGV, normalized to control-Fc

Sequence of UniProt O43300 (O43300 34-516): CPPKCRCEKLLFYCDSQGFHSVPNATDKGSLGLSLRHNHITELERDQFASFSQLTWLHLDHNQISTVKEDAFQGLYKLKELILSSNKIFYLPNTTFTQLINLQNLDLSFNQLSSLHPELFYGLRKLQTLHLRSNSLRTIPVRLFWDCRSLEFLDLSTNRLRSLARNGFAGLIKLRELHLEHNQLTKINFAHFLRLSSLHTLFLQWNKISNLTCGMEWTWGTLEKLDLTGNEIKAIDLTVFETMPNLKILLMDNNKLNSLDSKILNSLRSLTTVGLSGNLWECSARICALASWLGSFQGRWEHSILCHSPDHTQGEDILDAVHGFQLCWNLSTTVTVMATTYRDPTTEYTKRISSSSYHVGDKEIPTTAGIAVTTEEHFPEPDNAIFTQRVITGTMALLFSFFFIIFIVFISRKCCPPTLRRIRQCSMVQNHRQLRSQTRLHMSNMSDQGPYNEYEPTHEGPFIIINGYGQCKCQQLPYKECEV

Substance: P469S HA-Nrxn1α-ecto-Fc (Fc fusion)
- fold increase in binding against WT: 2 fold
